{"source": "patent US20260201033A1", "about": "(LTZ THERAPEUTICS, published 2026)", "binders": {"B1": {"name": "h7G10, humanized anti-CLEC5A antibody (antibody, V domains shown)", "VH": "EQQLVESGGGVVQPGRSLRLSCAASGFSFSSGYDMCWVRQAPGKGLEWIACIYGGRSDNVYYARWAKGRFTISKDSSTNTVFLQMNSLRAEDTAVYFCARDYLYRGYIGGGYGRSNLWGPGTLVTVSS", "VL": "DVQMTQSPSSVSASVGDRVTITCRASEDIENCLAWYQQKPGKPPKLLIYQASKLPSGVPSRFSGSGSGTDYTLTISSLQPEDFATYYCQNPDYMRNTDNLFGGGTKVEIK", "notes": "also called humanized 7G10"}, "B2": {"name": "h6A5, humanized anti-CLEC5A antibody (antibody, V domains shown)", "VH": "EQQLVESGGGLVQPGGSLRLSCSASGFSFSSSYYMCWVRQAPGKGLELIACIYSSSGRTWYATWVNGRFTISRDTSKNTVYLQMNSLRAEDTAVYFCARSYAGYGGYGYAYFNLWGPGTLVTVSS", "VL": "EIVMTQSPATLSVSPGERATLSCQASEDIYSSLAWYQQKPGQRPRLLIYDASTLASGVPARFSGSGSGTEYTLTISSLQSEDFAVYYCQNYYDSTGSGYGAAFGGGTKVEIK", "notes": "also called humanized 6A5"}, "B3": {"name": "h13E6, humanized anti-CLEC5A antibody (antibody, V domains shown)", "VH": "EQQLLESGGGLVQPGGSLRLSCAASGFSFSSSYWLCWVRQAPGKGLEWIACIYGGSSRGTYYASWAKGRFTISKDSSKNTVYLQMNSLRAEDTAVYFCASHTYTYPRFSPYFNLWGPGTLVTVSS", "VL": "EFVMTQSPATLSVSPGERATLSCQASEDIESSLAWYQQKPGQPPRLLIYDASDLESGVPARFSGSGSGTEYTLTISSLQSEDFAVYFCQSAYYTGSADNTFGGGTKVEIK", "notes": "also called humanized 13E6"}, "B4": {"name": "h5C7, humanized anti-CLEC5A antibody (antibody, V domains shown)", "VH": "EQQLVESGGGLVKPGGSLRLSCAASGFSFSRSSYMCWVRQAPGKCLEWIGCLSVGDGHTYYASWAKGRFTISKDSAKNSVYLQMNSLRAEDTAVYFCARAPSYSGDGGHGYDLWGPGTLVTVSS", "VL": "DIQMTQSPSSLSASVGDRVTITCQASESVDRNNRLAWFQQKPGKPPKLLIYTTSTLASGVPSRFSGSGSGTDFTLTISSLQPEDVATYYCAGYRGAHTDGDAFGCGTKVEIK", "notes": "also called humanized 5C7"}, "B5": {"name": "CD79b/5C7 (2+1 B) Fc-silenced (bispecific antibody, human IgG1, kappa, L234A L235A)", "heavy 1": "EQQLVETGGGLIQPGGSLRLSCAASGFTINIDYWISWVRQAPGKGLEWIGIIDPGDGTTYFAIWVSGRFTISFDNSKNTVYLQMNSLRAEDTAVYFCVREFSASAYQYDLWGPGTLVTVSSASTKGPSVFPLAPSSKSTSGGTAALGCLVKDYFPEPVTVSWNSGALTSGVHTFPAVLQSSGLYSLSSVVTVPSSSLGTQTYICNVNHKPSNTKVDKKVEPKSCDKTHTCPPCPAPEAAGGPSVFLFPPKPKDTLMISRTPEVTCVVVDVSHEDPEVKFNWYVDGVEVHNAKTKPREEQYNSTYRVVSVLTVLHQDWLNGKEYKCKVSNKALGAPIEKTISKAKGQPREPQVCTLPPSRDELTKNQVSLSCAVKGFYPSDIAVEWESNGQPENNYKTTPPVLDSDGSFFLVSKLTVDKSRWQQGNVFSCSVMHEALHNRFTQKSLSLSPGK", "heavy 2": "not shown", "light": "ELVMTQSPATLSVSPGERATLSCRASEDIENYLAWYQQKPGQPPRLLIYRASTLSSGVPARFSGSGSGTEFTLTISSLQSEDFAVYYCQQGYRNSNVDNPFGGGTKVEIKRTVAAPSVFIFPPSDEQLKSGTASVVCLLNNFYPREAKVQWKVDNALQSGNSQESVTEQDSKDSTYSLSSTLTLSKADYEKHKVYACEVTHQGLSSPVTKSFNRGEC"}, "B6": {"name": "CD79b/5C7 (2+1 A) Fc-silenced (bispecific antibody, human IgG1, kappa, L234A L235A)", "heavy 1": "EQQLVETGGGLIQPGGSLRLSCAASGFTINIDYWISWVRQAPGKGLEWIGIIDPGDGTTYFAIWVSGRFTISFDNSKNTVYLQMNSLRAEDTAVYFCVREFSASAYQYDLWGPGTLVTVSSASTKGPSVFPLAPSSKSTSGGTAALGCLVKDYFPEPVTVSWNSGALTSGVHTFPAVLQSSGLYSLSSVVTVPSSSLGTQTYICNVNHKPSNTKVDKKVEPKSCDGGGGSGGGGSGGGGSEQQLVETGGGLIQPGGSLRLSCAASGFTINIDYWISWVRQAPGKGLEWIGIIDPGDGTTYFAIWVSGRFTISFDNSKNTVYLQMNSLRAEDTAVYFCVREFSASAYQYDLWGPGTLVTVSSASTKGPSVFPLAPSSKSTSGGTAALGCLVKDYFPEPVTVSWNSGALTSGVHTFPAVLQSSGLYSLSSVVTVPSSSLGTQTYICNVNHKPSNTKVDKKVEPKSCDKTHTCPPCPAPEAAGGPSVFLFPPKPKDTLMISRTPEVTCVVVDVSHEDPEVKFNWYVDGVEVHNAKTKPREEQYNSTYRVVSVLTVLHQDWLNGKEYKCKVSNKALGAPIEKTISKAKGQPREPQVCTLPPSRDELTKNQVSLSCAVKGFYPSDIAVEWESNGQPENNYKTTPPVLDSDGSFFLVSKLTVDKSRWQQGNVFSCSVMHEALHNRFTQKSLSLSPGK", "heavy 2": "not shown", "light": "B5 light"}, "B7": {"name": "CD79b/5C7 (2+1 A) Fc-optimized (bispecific antibody, human IgG1, kappa)", "heavy 1": "B6 heavy 1 with A478L, A479L, G480A, G573P, A574L, I576E, C593Y, R679H, F680Y", "heavy 2": "DIQMTQSPSSLSASVGDRVTITCQASESVDRNNRLAWFQQKPGKPPKLLIYTTSTLASGVPSRFSGSGSGTDFTLTISSLQPEDVATYYCAGYRGAHTDGDAFGGGTKVEIKGGGGSGGGGSGGGGSGGGGSEQQLVESGGGLVKPGGSLRLSCAASGFSFSRSSYMCWVRQAPGKGLEWIGCLSVGDGHTYYASWAKGRFTISKDSAKNSVYLQMNSLRAEDTAVYFCARAPSYSGDGGHGYDLWGPGTLVTVSSDKTHTCPPCPAPELLAGPSVFLFPPKPKDTLMISRTPEVTCVVVDVSHEDPEVKFNWYVDGVEVHNAKTKPREEQYNSTYRVVSVLTVLHQDWLNGKEYKCKVSNKALPLPEEKTISKAKGQPREPQVYTLPPSRDELTKNQVSLWCLVKGFYPSDIAVEWESNGQPENNYKTTPPVLDSDGSFFLYSKLTVDKSRWQQGNVFSCSVMHEALHNHYTQKSLSLSPGK", "light": "B5 light"}, "B8": {"name": "h3A7, humanized anti-CLEC5A antibody (antibody, V domains shown)", "VH": "EQQLLESGGGLVQPGGSLRLSCAASGFSFSGMYWICWVRQAPGKGLEWIACIYTGSSTTGYASWAKGRFTISKDSSKNTVYLQMNSLRAEDTAVYFCASPYGDSSHYRGLNLWGPGTLVTVSS", "VL": "DVQMTQSPSSLSASVGDRVTITCQASQRINNYLSWFQQKPGKPPKLLIYGAATLASGVPSRFSGSGSGTDYTLTISSLQPEDVATYYCQCTYGIPSSNYGFGGGTKVEIK", "notes": "also called humanized 3A7"}}, "key": {"[1]": {"biological_target": "T1, Human CLEC5A His Tag protein (ACROBiosystems, Cat #: CLA-H5243) (human, UniProt Q9NY25 28-188, limits assumed)", "T1 construct": "Bought protein with a His tag; also called recombinant human CLEC5A protein", "T1 sequence": "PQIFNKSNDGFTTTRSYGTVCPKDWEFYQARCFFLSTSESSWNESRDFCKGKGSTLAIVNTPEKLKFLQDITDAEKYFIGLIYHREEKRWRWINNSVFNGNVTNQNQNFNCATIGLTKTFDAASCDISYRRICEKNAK", "experiment": "ELISA, plate coated with human CLEC5A", "experimental": "Protein antigen was aspirated, and wells were washed 3 times with 400 μL of wash buffer (0.05% Tween® 20 in PBS) using a plate washer. Anti-CLEC5A antibodies were prepared as the primary antibody at 5 μg/mL and serially diluted 3-fold through 11 points (diluted concentrations) with reagent buffer (PBS+0.05% BSA). 100 μL of primary antibody was added to appropriate wells and incubated for 1 hour at room temperature. Primary antibody was aspirated, and wells were washed 3 times with 400 μL of wash buffer (0.05% Tween® 20 in PBS) using a plate washer. […] Secondary antibody was aspirated, and wells were washed 3 times with 400 μL of wash buffer (0.05% Tween® 20 in PBS) using a plate washer. […] 100 μL of Fisher 1N Sulfuric Acid (Cat #: SA212-2) stop solution was added to each well and the plate was read in a plate reader at 450 nm. For analysis, OD450 of each antibody was plotted using GraphPad Prism software (Version 9.4.1; GraphPad Software Inc.)."}, "[2]": {"biological_target": "T2, CD79b on Ramos cells and on endogenous B cells of human PBMCs (human, UniProt P40259 29-229)", "T2 sequence (looked up)": "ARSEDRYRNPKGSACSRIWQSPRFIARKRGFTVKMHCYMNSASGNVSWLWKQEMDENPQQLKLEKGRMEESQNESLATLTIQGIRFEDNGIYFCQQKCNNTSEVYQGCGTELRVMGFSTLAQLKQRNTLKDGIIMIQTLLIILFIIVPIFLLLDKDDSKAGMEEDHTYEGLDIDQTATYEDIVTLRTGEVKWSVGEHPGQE", "experiment": "cell-based or functional assay"}, "[3]": {"biological_target": "T2, CD79b on Ramos cells and on endogenous …", "experiment": "cell-based or functional assay", "remark": "listed apart in the source"}, "[4]": {"biological_target": "T2, CD79b on Ramos cells and on endogenous …", "experiment": "cell-based or functional assay", "remark": "listed apart in the source"}, "[5]": {"biological_target": "T2, CD79b on Ramos cells and on endogenous …", "experiment": "cell-based or functional assay", "remark": "listed apart in the source"}, "[6]": {"biological_target": "T2, CD79b on Ramos cells and on endogenous …", "experiment": "cell-based or functional assay", "remark": "listed apart in the source"}, "[7]": {"biological_target": "T2, CD79b on Ramos cells and on endogenous …", "experiment": "cell-based or functional assay", "remark": "listed apart in the source"}}, "note": "Residue numbers refer to the chain shown, from its start."}
{"binder": "B1", "values": [{"measurement": "EC50", "setting": "[1]", "value": 220, "unit": "pM"}]}
{"binder": "B2", "values": [{"measurement": "EC50", "setting": "[1]", "value": 330, "unit": "pM"}]}
{"binder": "B3", "values": [{"measurement": "EC50", "setting": "[1]", "value": 120, "unit": "pM"}]}
{"binder": "B4", "values": [{"measurement": "EC50", "setting": "[1]", "value": 440, "unit": "pM"}]}
{"binder": "B5", "values": [{"measurement": "IC50 (nM), killing of endogenous B cells by PBMCs, Donor 367", "setting": "[2]", "value": 0.0155, "unit": "nM"}, {"measurement": "IC50 (nM), killing of endogenous B cells by PBMCs, Donor 431", "setting": "[2]", "value": 0.0155, "unit": "nM"}, {"measurement": "IC50 (nM), Ramos cell killing by PBMCs (test 2), Donor 431", "setting": "[3]", "value": 0.0155, "unit": "nM"}, {"measurement": "IC50 (nM), Ramos cell killing by M0 macrophages, Donor 022", "setting": "[4]", "value": 0.003, "unit": "nM"}, {"measurement": "IC50 (nM), Ramos cell killing by M0 macrophages, Donor 431", "setting": "[4]", "value": 0.002, "unit": "nM"}, {"measurement": "IC50 (nM), Ramos cell killing by PBMCs (test 3), Donor 281", "setting": "[5]", "value": 0.0165, "unit": "nM"}, {"measurement": "IC50 (nM), Ramos cell killing by PBMCs (test 3), Donor 367", "setting": "[5]", "value": 0.0685, "unit": "nM"}, {"measurement": "IC50 (nM), Ramos cell killing by M2 macrophages, Donor 022", "setting": "[6]", "value": 0.002, "unit": "nM"}, {"measurement": "IC50 (nM), Ramos cell killing by M2 macrophages, Donor 431", "setting": "[6]", "value": 0.002, "unit": "nM"}, {"measurement": "IC50 (nM), Ramos cell killing by M1 macrophages, Donor 431", "setting": "[7]", "value": 0.005, "unit": "nM"}]}
{"binder": "B6", "values": [{"measurement": "IC50 (nM), Ramos cell killing by M0 macrophages, Donor 022", "setting": "[4]", "value": 0.003, "unit": "nM"}, {"measurement": "IC50 (nM), Ramos cell killing by M0 macrophages, Donor 100", "setting": "[4]", "value": 0.002, "unit": "nM"}, {"measurement": "IC50 (nM), Ramos cell killing by M2 macrophages, Donor 022", "setting": "[6]", "value": 0.003, "unit": "nM"}, {"measurement": "IC50 (nM), Ramos cell killing by M2 macrophages, Donor 100", "setting": "[6]", "value": 0.001, "unit": "nM"}, {"measurement": "IC50 (nM), Ramos cell killing by M1 macrophages, Donor 100", "setting": "[7]", "value": 0.001, "unit": "nM"}]}
{"binder": "B7", "values": [{"measurement": "IC50 (nM), killing of endogenous B cells by PBMCs, Donor 234", "setting": "[2]", "value": 0.0178, "unit": "nM"}, {"measurement": "IC50 (nM), Ramos cell killing by PBMCs (test 2), Donor 234", "setting": "[3]", "value": 0.00472, "unit": "nM"}, {"measurement": "IC50 (nM), Ramos cell killing by M0 macrophages, Donor 022", "setting": "[4]", "value": 0.002, "unit": "nM"}, {"measurement": "IC50 (nM), Ramos cell killing by M2 macrophages, Donor 022", "setting": "[6]", "value": 0.002, "unit": "nM"}]}
{"binder": "B8", "values": [{"measurement": "EC50", "setting": "[1]", "value": 470, "unit": "pM"}]}
